Laboratory results taken from a protein production outcome set (Wang et al. 2014).

Assay: label from the status in PepcDB records
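Note: failed if final PepcDB status was selected cloned or expressed and not failed if soluble or beyond.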

With “RNRRREEAARHYLECVLDGLTTGVVVFDEKGRLKTFNKAAEQILGMPLAPLWGSSRHGWHGVSAQQSLLAEVFAAIGAAAGTDKPVQVEYAAPDDAKILLGKATVLPEDNGNGVVMVIDDIT” as the sequence, how does the protein production read?
Its protein production is “failed”.

For “MKSLWSDADAAECVERLGLLGLPPELGLRTYSARLLGSNPKLVLHGGGNTSVKLNINDLFGNPVQVMCIKGSGQDLATITASGHPAVRLAPLQQLKVLDHLSDEDMVNILRTNLLDCRAPTPSVEALLHAFVDRPVIDHTHAVAAMVIADQPDGDRLCRYIYGERVLWIPYVMSGFALSLAVERAFRAYPDAEGMLLGKHGLCTFGESAKASYERMITFVTLAENFIESRRAIYSPPVITPPAKPNNLADMAHIAPYLRAAFARSSAISEKKHWIFDLRTDPKSLAFSSGLGTSDIAQRGVATPDHVIRMKGRPVVLDAPDLNNLGDWAAQTQTKIAAFVERYQHYFHRNNARFERGKIALDALPRAIVIPYLGVVGAGRTAEDAAINADIIESWLDVVTDATVCGDYEPIGEADEFDMEYWSLEQAKIDKASVKPLQGQIVVVTGAGGGIGAAIAKEFSLLGAELAVLDIDSESAKNVAAQLGPHALALQCDVTETASVQAAFETIATRFGGVDIVVSNAGVALSGAIAELPEATLRTSFEVNFFAHQRVAQQAVSIMKKQGIGGVLLFNISKQAINPGINFGAYGTSKAALLSLVRQYALEQGQDSIRVNAVNADRIRSGLLDDEMISLRARARGLSEEKYMAGNLLGQEVTAQDVAKAFVVSAMLDKSTGNVITVDGGNVAAMLR”, which protein production is on record?
The protein production was “failed”.

For “MRAGIVGSGIMGRLLAFVLHNAGWQVSLFDRSNESMNCSTAAAGLLTPFSELDKSILLISTLGQESIKNCWPRIIEDLPESVYFQQSGSLVLCHPGDQAEWIHFSRRILSQLNPSNSVFQKLSHENLIALEPELTKFETAYYFPNEAHIDCQTLMLSLKNYLDSVCIPHITNTPVLSLKPGEINTKEQRYHFDVVFDCRGLGAQNVFSDLRGIRGELIWLHAPGVQLHRPIRLLHPRYSLYLVPRPGNFYLIGASEIEAEDFSPVSVRTALELLTAVYYLHRNFDEARIIKTVTHCRPTLVNHLPRIKFADGLIAVNGLYRHGYLIAPALAEEILRGVTSNFRHLNYPELWENYCDLEHHHHHH”, which protein production is on record?
The protein production was “failed”.

For “MGMPAGPYLLTPPGVYAPQHDTDLLARALRREDIDTSTEVLDLGTGSGALAVHAARLGARVTAVDISRRAVLTARLNALLAGRRVTVRRGDLTAAVPGRSYDLVVSNPPYVPSPSARLPSRGAARAWDAGHDGRAFVDRICDTAPAALRAGGALLIVHSALCGTRPTLDRLAAAGLDASVTDRAFVPFGPVLRARRAWLRRQGLLTDENLEELVVIRAEHS”, which protein production is on record?
The protein production was “failed”.

With “MAKAMELWVGEMKKMSEKINTRNPLMQRKNSTSVVSKQQQGSEEERGLINQKIREKNEAVTMSELTVCLLMDRFVPW” as the sequence, how does the protein production read?
Its protein production is “failed”.

For “MKPNFSRDYQLKWLFYVYCVRSEVGEEEEKKKVTKKTRKRVRFDLNVQTYEPIVPSRYENACSDDEEGKGGRSKGSSAIDKKPEDLSSRSVYPSNYRYHNCVDSFEDEDDEMGYGESDLEDEDYYTDNENDYEDDADDEDEEEEEENEQDVAPLLNPVENLAQWKAVKARPVKVKRVMKENVEEDMDDQAKPLLKEIIVNTSLSNWLASPKSLHANGSSKRSPIVDITNMENR”, which protein production is on record?
Its protein production is “failed”.

Which protein production does the source give for “MNHAITMGIFWHLIGAASAACFYAPFKKVKHWSWETMWSVGGIVSWLILPWAISATLLPDFWAYYRSFSASTLLPVFLFGAMWGIGNINYGLTMRYLGMSMGIGIAIGITLIVGTLMTPIINGQFAVLMHTQGGQMTLLGVLVAVIGVGIVTRAGQLKERKMGIKAEEFNLKKGLLLAVMCGIFSAGMSFAMNAAKPMHDAAAALGVDPLYAALPSYVVIMGGGALVNLGFCFIRLAKVKNLSVKADFSLAKPLIISNLLLSALGGLMWYLQFFFYAWGHASIPAQYDYMSWMLHMSFYVLCGGVVGLVLKEWNNAGRRPVSVLSLGCVVIIIAANIVGLGMAS” here?
The protein production was “failed”.

Which protein production does the source give for “MDSSDSHVGQDVYVDQGLGEPDRLERLWAPYRMSYINTRSGGKQSTTAKRDPFIEVPKMSDEDGLIVARGELVYCVLNLYPYNAGHMMVIPFRKEKNLEDLSLAESAELMLFTQTAIKALKQVSNPDAVNVGLNLGKASGGSVGDHLHVHVVPRWSGDANFMTVIDGVKVLPQTLRQTRAMLAQAWGTIDGAPGTVDPTLTSAIRTAAPKEH” here?
The protein production was “failed”.

Which protein production does the source give for “MKDREIFAGLSTTVPFVLRLDGRSFHRFSKDRYKKPYDKVFSDAMVKTARALVTDSGLSPSFAYTFSDEISLYVPAPVFDCRVEKLASVSAAFAASAFTLYAGASEPLAFDARVIPIEEGLFPAYLSWRQAEAWRNHMNGYAQKILQDEGVSPTNAQKQLDGMNAAALHEFAFSRGVNLALTPAWERRGICIYRDVVMRDGYNPIKDEKVSVERTIAVIDEDVPLFKSPEGTAWVLSKIRLEHHHHHH” here?
Its protein production is “failed”.
